This is an account of results in patent US20240279356A1 (Xencor, published 2024).

The target in assay [1] is T1, MSLN on OVCAR8 (MSLN^high) and other cancer cell lines (UniProt Q13421 296-598).
T1 construct: whole, on cells; Endogenous surface MSLN; also called MSLN^high OVCAR8 cells; MSLN^low SKOV3 and HT29 cells
As to the kind of experiment: flow cytometry on OVCAR8 cells, detected with A647-labelled anti-human Fc mAb. The protocol:
Next, the effect of MSLN binding affinity was investigated. 100,000 OVCAR8 (MSLN^high) cells were treated with the indicated concentrations of the indicated test articles. […] Further, XENP32852 and XENP32853 which differ only in CD3 binding affinity have identical binding to OVCAR8 cells confirming that avid binding is due to the MSLN binding domain.
For orientation: A flow cytometer gives signals particle by particle.

For assay [2], the target named is T2, human MSLN antigen (human, UniProt Q13421 296-580, limits assumed).
T2 construct: Soluble antigen for BLI; also called Mesothelin; MESO
T2 sequence (Q13421 other isoform, or with tags, fused parts or gaps limits assumed): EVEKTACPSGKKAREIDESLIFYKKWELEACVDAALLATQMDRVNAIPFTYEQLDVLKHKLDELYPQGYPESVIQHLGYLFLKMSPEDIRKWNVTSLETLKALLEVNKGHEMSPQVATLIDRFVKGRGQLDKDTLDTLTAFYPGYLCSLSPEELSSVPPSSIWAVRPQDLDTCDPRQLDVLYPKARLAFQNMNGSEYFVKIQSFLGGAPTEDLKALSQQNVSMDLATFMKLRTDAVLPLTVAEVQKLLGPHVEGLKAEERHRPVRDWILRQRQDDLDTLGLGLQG
As to the kind of experiment: Octet BLI on human MSLN antigen (Example 2B(a)); KD quoted in the FIG. 35 legend. From the text: (§1) Variants of MESO-C were engineered by introducing point substitutions into the variable heavy region (VH) and the variable light region (VL) to generate 11 VH variants and 16 VL variants (sequences for which are depicted in FIG. 18 as H1.1-H1.13 and in FIG. 19 as L1.1-L1.18). An additional 4 VL variants were generated by combining useful point substitutions (sequences for which are depicted in FIG. 19 as L1.19-L1.22). WT and variant variable heavy regions were paired with WT and variant variable light regions to generate variant variable regions (Fvs) which were produced in the context of anti-MSLN×anti-CD3 bispecific antibodies. The bispecific antibodies were screened for MSLN binding affinity using Octet®, a BioLayer Interferometry (BLI)-based method. Experimental steps for Octet® generally include the following: Immobilization (capture of ligand to a biosensor); Association (dipping of ligand-coated biosensors into wells containing the analyte); and Dissociation (returning of biosensors to well containing buffer). In an initial screening, anti-human Fc sensors were used to capture the bispecific mAbs and dipped into human MSLN antigen (one concentration to screen large library). The resulting dissociation constant of illustrative variants (KD), association rate (kₐ), dissociation rate (kd), as well as sensorgram response are depicted in FIG. 20. In further screening of favorite variants identified in the initial screen (and combination variants), bispecific mAbs were dipped into multiple concentrations of human MSLN antigen, data for which are depicted in FIG. 21 (from various screens).
In general terms: Biolayer interferometry detects binding as a change in optical thickness at a sensor tip.

The next assay deals with T3, cyno MSLN (Macaca fascicularis (cynomolgus)).
T3 construct: soluble antigen for Octet; also called cynomolgus MSLN
As to the kind of experiment: Octet BLI; bsAb on anti-human Fc sensor, cyno MSLN as analyte, one concentration.

In assay [3] the target is T2, human MSLN antigen. As to the kind of experiment: Octet BLI; bsAb on anti-human Fc sensor, human MSLN as analyte, one concentration.
From the text: as §1

The target in assay [4] is T2, human MSLN antigen. As to the kind of experiment: Octet BLI; bsAb on anti-human Fc sensor, human MSLN as analyte, several concentrations.
From the text: as §1

T1 sequence (Q13421 other isoform, or with tags, fused parts or gaps limits assumed): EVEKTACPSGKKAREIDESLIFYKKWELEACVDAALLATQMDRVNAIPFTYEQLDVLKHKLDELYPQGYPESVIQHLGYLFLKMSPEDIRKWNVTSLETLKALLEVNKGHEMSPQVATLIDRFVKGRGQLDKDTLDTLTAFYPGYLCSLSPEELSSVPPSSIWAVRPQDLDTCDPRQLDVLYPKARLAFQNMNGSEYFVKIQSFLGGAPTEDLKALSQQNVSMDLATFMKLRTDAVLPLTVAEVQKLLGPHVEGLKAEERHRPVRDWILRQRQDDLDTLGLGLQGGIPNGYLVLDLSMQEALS

B1: XENP31697 (bispecific antibody)
heavy: QVQLVQSGAEVKKPGASVKVSCKASGYTFTSYWMHWVRQAPGQGLEWMGMIHPNSDNTIYYEKFQGRVTMTVDKSISTAYMELSRLRSDDTAVYYCAIIITPVVPKFDYWGQGTLVTVSSASTKGPSVFPLAPSSKSTSGGTAALGCLVKDYFPEPVTVSWNSGALTSGVHTFPAVLQSSGLYSLSSVVTVPSSSLGTQTYICNVNHKPSDTKVDKKVEPKSCDKTHTCPPCPAPPVAGPSVFLFPPKPKDTLMISRTPEVTCVVVDVKHEDPEVKFNWYVDGVEVHNAKTKPREEEYNSTYRVVSVLTVLHQDWLNGKEYKCKVSNKALPAPIEKTISKAKGQPREPQVYTLPPSREEMTKNQVSLTCDVSGFYPSDIAVEWESDGQPENNYKTTPPVLDSDGSFFLYSKLTVDKSRWEQGDVFSCSVMHEALHNHYTQKSLSLSPGK
scFv-Fc: not shown
light: DIVMTQSPDSLAVSLGERATINCKASHDVGTSVAWYQQKPGQSPKLLIYWASTRHTGVPDRFTGSGSGTDFTLTISSLQAEDVAVYFCQQYSSYPLTFGAGTKLEIKRTVAAPSVFIFPPSDEQLKSGTASVVCLLNNFYPREAKVQWKVDNALQSGNSQESVTEQDSKDSTYSLSSTLTLSKADYEKHKVYACEVTHQGLSSPVTKSFNRGEC
notes: 1+1 Fab-scFv-Fc anti-MSLN x anti-CD3
With B1, the EC50 (read off the curve) (in general, the concentration needed to bring the measured effect to its halfway point) in assay [1] was roughly 0.07 µg/mL. In addition, the Kd (usually the concentration at which binding is half-saturated) in the assay with human MSLN antigen [2] turned out to be 0.28 nM.

B2: XENP32948 (bispecific antibody)
heavy: QVQLVQSGAEVKKPGASVKVSCKASGYTFTSYWMHWVRQAPGQGLEWMGMIHPNSDNTIYYQKFQGRVTMTVDKSISTAYMELSRLRSDDTAVYYCAIIITPVVPKFDYWGQGTLVTVSSASTKGPSVFPLAPSSKSTSGGTAALGCLVKDYFPEPVTVSWNSGALTSGVHTFPAVLQSSGLYSLSSVVTVPSSSLGTQTYICNVNHKPSDTKVDKKVEPKSCDKTHTCPPCPAPPVAGPSVFLFPPKPKDTLMISRTPEVTCVVVDVKHEDPEVKFNWYVDGVEVHNAKTKPREEEYNSTYRVVSVLTVLHQDWLNGKEYKCKVSNKALPAPIEKTISKAKGQPREPQVYTLPPSREEMTKNQVSLTCDVSGFYPSDIAVEWESDGQPENNYKTTPPVLDSDGSFFLYSKLTVDKSRWEQGDVFSCSVMHEALHNHYTQKSLSLSPGK
Fab-scFv-Fc: QVQLVQSGAEVKKPGASVKVSCKASGYTFTSYWMHWVRQAPGQGLEWMGMIHPNSDNTIYYQKFQGRVTMTVDKSISTAYMELSRLRSDDTAVYYCAIIITPVVPKFDYWGQGTLVTVSSASTKGPSVFPLAPSSKSTSGGTAALGCLVKDYFPEPVTVSWNSGALTSGVHTFPAVLQSSGLYSLSSVVTVPSSSLGTQTYICNVNHKPSNTKVDKKVEPKSCGGGGSGGGGSQAVVTQEPSLTVSPGGTVTLTCGSSTGAVTTSNYANWVQQKPGKSPRGLIGGTNKRAPGVPARFSGSLLGGKAALTISGAQPEDEADYYCALWYSNHWVFGGGTKLTVLGKPGSGKPGSGKPGSGKPGSEVQLVESGGGLVQPGGSLRLSCAASGFTFSTYAMNWVRQAPGKGLEWVGRIRSKANNYATYYADSVKGRFTISRDDSKNTLYLQMNSLRAEDTAVYYCVRHGNFGDSYVSWFAYWGQGTLVTVSSGGGGSGGGGSKTHTCPPCPAPPVAGPSVFLFPPKPKDTLMISRTPEVTCVVVDVKHEDPEVKFNWYVDGVEVHNAKTKPREEQYNSTYRVVSVLTVLHQDWLNGKEYKCKVSNKALPAPIEKTISKAKGQPREPQVYTLPPSREQMTKNQVKLTCLVKGFYPSDIAVEWESNGQPENNYKTTPPVLDSDGSFFLYSKLTVDKSRWQQGNVFSCSVMHEALHNHYTQKSLSLSPGK
light: DIVMTQSPDSLAVSLGERATINCKASHDVGTSVAWYQQKPGQSPKLLIYWASTRHTGVPDRFTGSGSGTDFTLTISSLQAEDVAVYFCQQYYSYPLTFGAGTKLEIKRTVAAPSVFIFPPSDEQLKSGTASVVCLLNNFYPREAKVQWKVDNALQSGNSQESVTEQDSKDSTYSLSSTLTLSKADYEKHKVYACEVTHQGLSSPVTKSFNRGEC
notes: 2+1 Fab2-scFv-Fc
Regarding B2, the Kd in the assay with human MSLN antigen [2] came to 10.2 nM.

B3: XENP32563 (bispecific antibody)
heavy: QVQLVQSGAEVKKPGASVKVSCKASGYTFTSYWMHWVRQAPGQGLEWMGMIHPNSDNTIYYEKFQGRVTMTVDKSISTAYMELSRLRSDDTAVYYCAIIITPVVPKFDYWGQGTLVTVSSASTKGPSVFPLAPSSKSTSGGTAALGCLVKDYFPEPVTVSWNSGALTSGVHTFPAVLQSSGLYSLSSVVTVPSSSLGTQTYICNVNHKPSDTKVDKKVEPKSCDKTHTCPPCPAPPVAGPSVFLFPPKPKDTLMISRTPEVTCVVVDVKHEDPEVKFNWYVDGVEVHNAKTKPREEEYNSTYRVVSVLTVLHQDWLNGKEYKCKVSNKALPAPIEKTISKAKGQPREPQVYTLPPSREEMTKNQVSLTCDVSGFYPSDIAVEWESDGQPENNYKTTPPVLDSDGSFFLYSKLTVDKSRWEQGDVFSCSVMHEALHNHYTQKSLSLSPGK
scFv-Fc: not shown
light: DIVMTQSPDSLAVSLGERATINCKASHDVGTYVAWYQQKPGQSPKLLIYWASTRHTGVPDRFTGSGSGTDFTLTISSLQAEDVAVYFCQQYSSYPLTFGAGTKLEIKRTVAAPSVFIFPPSDEQLKSGTASVVCLLNNFYPREAKVQWKVDNALQSGNSQESVTEQDSKDSTYSLSSTLTLSKADYEKHKVYACEVTHQGLSSPVTKSFNRGEC
notes: 1+1 Fab-scFv-Fc
In the case of B3, the Kd with human MSLN antigen [2] was roughly 12.8 nM. Also, in the assay with cyno MSLN, the Kd is 13.1 nM; the Response worked out at 0.817; the koff – broadly, the rate constant with which the complex falls apart – came to 0.00713 s⁻¹; the kon (in general, the rate constant with which the complex forms) was 543000 M⁻¹ s⁻¹. Further, in the assay with human MSLN antigen [3], the Response was 0.898, the koff was 0.00672 s⁻¹ and the kon turned out to be 527000 M⁻¹ s⁻¹.

B4: XENP32937 (bispecific antibody)
heavy: QVQLVQSGAEVKKPGASVKVSCKASGYTFTSYWMHWVRQAPGQGLEWMGMIHPNSDNTIYYQKFQGRVTMTVDKSISTAYMELSRLRSDDTAVYYCAIIITPVVPKFDYWGQGTLVTVSSASTKGPSVFPLAPSSKSTSGGTAALGCLVKDYFPEPVTVSWNSGALTSGVHTFPAVLQSSGLYSLSSVVTVPSSSLGTQTYICNVNHKPSDTKVDKKVEPKSCDKTHTCPPCPAPPVAGPSVFLFPPKPKDTLMISRTPEVTCVVVDVKHEDPEVKFNWYVDGVEVHNAKTKPREEEYNSTYRVVSVLTVLHQDWLNGKEYKCKVSNKALPAPIEKTISKAKGQPREPQVYTLPPSREEMTKNQVSLTCDVSGFYPSDIAVEWESDGQPENNYKTTPPVLDSDGSFFLYSKLTVDKSRWEQGDVFSCSVMHEALHNHYTQKSLSLSPGK
scFv-Fc: not shown
light: DIVMTQSPDSLAVSLGERATINCKASHDVGTSVAWYQQKPGQSPKLLIYWASTRHTGVPDRFTGSGSGTDFTLTISSLQAEDVAVYFCQQYYSYPLTFGAGTKLEIKRTVAAPSVFIFPPSDEQLKSGTASVVCLLNNFYPREAKVQWKVDNALQSGNSQESVTEQDSKDSTYSLSSTLTLSKADYEKHKVYACEVTHQGLSSPVTKSFNRGEC
notes: 1+1 Fab-scFv-Fc
In the case of B4, in the assay with human MSLN antigen [2], the Kd was determined as 10.2 nM. Besides, in the assay with human MSLN antigen [4], the Response came out at 0.183, the koff turned out to be 0.00822 s⁻¹ and the kon is 803000 M⁻¹ s⁻¹.

B5: XENP32947 (bispecific antibody)
heavy 1: QVQLVQSGAEVKKPGASVKVSCKASGYTFTSYWMHWVRQAPGQGLEWMGWIHPNSDNTIYYEKFQGRVTMTVDKSISTAYMELSRLRSDDTAVYYCAIIITPVVPKFDYWGQGTLVTVSSASTKGPSVFPLAPSSKSTSGGTAALGCLVKDYFPEPVTVSWNSGALTSGVHTFPAVLQSSGLYSLSSVVTVPSSSLGTQTYICNVNHKPSDTKVDKKVEPKSCDKTHTCPPCPAPPVAGPSVFLFPPKPKDTLMISRTPEVTCVVVDVKHEDPEVKFNWYVDGVEVHNAKTKPREEEYNSTYRVVSVLTVLHQDWLNGKEYKCKVSNKALPAPIEKTISKAKGQPREPQVYTLPPSREEMTKNQVSLTCDVSGFYPSDIAVEWESDGQPENNYKTTPPVLDSDGSFFLYSKLTVDKSRWEQGDVFSCSVMHEALHNHYTQKSLSLSPGK
heavy 2: QVQLVQSGAEVKKPGASVKVSCKASGYTFTSYWMHWVRQAPGQGLEWMGWIHPNSDNTIYYEKFQGRVTMTVDKSISTAYMELSRLRSDDTAVYYCAIIITPVVPKFDYWGQGTLVTVSSASTKGPSVFPLAPSSKSTSGGTAALGCLVKDYFPEPVTVSWNSGALTSGVHTFPAVLQSSGLYSLSSVVTVPSSSLGTQTYICNVNHKPSNTKVDKKVEPKSCGGGGSGGGGSQAVVTQEPSLTVSPGGTVTLTCGSSTGAVTTSNYANWVQQKPGKSPRGLIGGTNKRAPGVPARFSGSLLGGKAALTISGAQPEDEADYYCALWYSNHWVFGGGTKLTVLGKPGSGKPGSGKPGSGKPGSEVQLVESGGGLVQPGGSLRLSCAASGFTFSTYAMNWVRQAPGKGLEWVGRIRSKANNYATYYADSVKGRFTISRDDSKNTLYLQMNSLRAEDTAVYYCVRHGNFGDSYVSWFAYWGQGTLVTVSSGGGGSGGGGSKTHTCPPCPAPPVAGPSVFLFPPKPKDTLMISRTPEVTCVVVDVKHEDPEVKFNWYVDGVEVHNAKTKPREEQYNSTYRVVSVLTVLHQDWLNGKEYKCKVSNKALPAPIEKTISKAKGQPREPQVYTLPPSREQMTKNQVKLTCLVKGFYPSDIAVEWESNGQPENNYKTTPPVLDSDGSFFLYSKLTVDKSRWQQGNVFSCSVMHEALHNHYTQKSLSLSPGK
light: DIVMTQSPDSLAVSLGERATINCKASHDVGTSVAWYQQKPGQSPKLLIYWASTRHTGVPDRFTGSGSGTDFTLTISSLQAEDVAVYFCQQYSSYPLTFGAGTKLEIKRTVAAPSVFIFPPSDEQLKSGTASVVCLLNNFYPREAKVQWKVDNALQSGNSQESVTEQDSKDSTYSLSSTLTLSKADYEKHKVYACEVTHQGLSSPVTKSFNRGEC
notes: 2+1 Fab2-scFv-Fc; copies: 1 + 1 + 2
As to B5, the Kd with human MSLN antigen [2] is 9.2 nM.
